Assay results: patent publication US20220154156A1, “PROTEINS AND METHODS FOR DISRUPTING BACTERIAL COMMUNICATION” (REGENTS OF THE UNIVERSITY OF MINNESOTA, priority 2019, published 2022)

What was measured:
[1] = Lactonase assay (pH indicator, cresol purple), kinetic measurements; assay type: biochemical; conditions: AHL acyl chain length
Method: Kinetic measurements. The determination of GcL catalytic efficiency was performed by using a microplate reader (Synergy HTX, BioTek, USA) and the software Gen5.1 over a range of substrates (FIG. 2). The reactions were operate in a 96-well plate at a path length of 5.8 mm for a 200 μl reaction volume at room temperature. The catalytic parameters were achieved by fitting the data to Michaelis-Menten equation with the Graph-Pad Prism 5 software. When, Vmax was not reached, the catalytic efficiency was determined by fitting the linear part of Michaelis-Menten plot to a linear regression using Graph-Pad Prism 5.
Lactonase assay. The AHL lactonolysis consisting in the opening of the lactone ring generates a proton, and leads to an acidification of the media. This property allowed the characterization of the lactonases by using a pH indicator assay. To perform the experiment 5 μl of enzyme were added to a solution containing 10 μl of substrates at various concentrations and 185 μl of lactonase buffer (2.5 mM Bicine pH 8.3, 150 mM NaCl, 0.2 mM CoCl2, 0.2 mM cresol purple, 0.5% DMSO). This assay was performed at 25° C. and the time course of the lactones hydrolysis was recorded at 577 nm. The characterization of the enzyme was proceeding against a large panel of AHLs: C4-AHL, C6-AHL, C8-AHL, C10-AHL, 3-oxo-C8-AHL and against γ-Butyrolactone, γ-Heptalactone, γ-Nonalactone, γ-Decanolactone, δ-Valerolactone, δ-Octanolactone, δ-Nonalactone, δ-Decalactone, ε-Caprolactone, ε-Decalactone, Whiskey lactone.

[2] = 25° C., purified protein sample; cited from earlier work
[3] = test system: Pectobacterium carotovorum CIR354; assay: Soft rot potato assay; assay type: in vivo; conditions: single spraying of 1 mL, 10 mg/mL
Method: (§1) FIG. 30A-30F show control of plant infections by a single spraying of 1 mL of lactonase solution (10 mg/mL) on plant leaves and crop. (A) and (B) Soft rot potato assay.
(§2) Specifically, we could establish infection systems for corn, wheat, and barley plants, and a crop infection system for potato (tubers and leaves).

[4] = test system: Xanthomonas translucens pv. translucens LMG876; assay: Barley leaf infection; assay type: in vivo; conditions: single spraying of 1 mL, 10 mg/mL
Method: as §1, §2

[5] = test system: bacterial communities at the surface of the steel; assay: 16S rDNA analysis of microbial community on steel coupons; conditions: treated coupons
Method: After photo imaging, on each of the coupon surface, all material including biofilm and tubercles were scraped into a sterile 50 ml polypropylene centrifuge tube (Corning, N.Y., USA) using a steel scraper. A 0.5 g subsample of the surface material from each coupon sample was used for DNA extraction using PowerSoil DNA kit (MoBio Laboratories). The extracted DNA was used to sequence the V4 region of 16S rDNA gene and describe changes in the composition of bacterial communities. DNA samples were quantified with a NanoDrop 2000 Spectrophotometer (Thermo Scientific, Waltham, Mass. USA) and then sent overnight to the University of Minnesota Genomics Center for 16S rDNA sequencing. 30 samples were multiplexed into a single run of Illumina MiSeq paired-end 300 cycles, which was expected to generate a total of 15 million sequences of the 254 bp portions of the 16S rDNA V4 region.
Sequence data were processed and analyzed using the MOTHUR program. To ensure high quality data for analysis, sequence reads containing ambiguous bases, homopolymers >7 bp, more than one mismatch in the primer sequence, or an average per base quality score below 25 were removed. Sequences that only appear once in the total set were assumed to be a result of sequencing error and removed from the analysis. Chimeric sequences were also removed using the UCHIME algorithm within the MOTHUR program. […]

[6] = test system: corrosion tubercles on steel coupons; assay: Biocorrosion of coated steel coupons in Duluth-Superior Harbor water, 8 weeks; parameters: concentration or dose not given beside the values; conditions: silica gel coating, two months in DSH water
Method: The steel coupons were washed with soap water, lightly brushed for a few seconds with a test tube brush, and then rinsed with Milli-Q water to remove any loose material. Each coupon was designated with a unique number and weighed before being randomly assigned to a specific experimental treatment.
Each compound or enzyme was added to 5 ml of the silica gel matrix to develop different coating treatments. These coatings were applied by dipping coupons into the appropriate gel mixture for 1 minute, and then the coating on the coupon surface was air-dried at room temperature for 2 hours.
Six treatments and three controls were investigated for corrosion rate and changes in bacterial communities (Table 10). Each treatment or control contained three replicate steel coupons. After the triplicate steel coupons were coated with each biochemical, enzyme or bacterial treatment, they were incubated in experimental microcosms constructed from 10-gallon glass aquaria (Aqueon Glass, 50.8 cm×25.4 cm×30.5 cm) (FIG. 24). Each microcosm was equipped with an aquarium pump (Aquarium Systems Mini-Jet 404) to constantly circulate the water (˜2 L hr−1), and covered with a piece of acrylic with one corner cut out to allow gas exchange. The coupons were hold with plastic holders and immersed in water taken from the DSH for 8 weeks and then recovered for analyses.
The coupons in each treatment was photographed by the end of the experiment. Biocorrosion was evaluated by the number and coverage of corrosion tubercles, and also by imaging of coupon surfaces with an environmental scanning electron microscope (ESEM). The coupon images were captured with DSLR camera immediately after being removed from the harbor water, and then tubercle numbers and total area in digital images were measured using the analyze menu within ImageJ software (NIH, Bethesda, Md., USA). Surface roughness measurements were also made after the exposed coupons were cleaned with ASTM G1-90 iron and steel chemical cleaning procedure (2 min in 37% HCl, 50 g/L SnCl2). A Hitachi TM-3030 ESEM was used to view details of the cleaned coupon surface and the 3D-View software was used to generate surface roughness measurements (SRa). Statistics analysis (T-tests) of the tubercle numbers, coverage and surface roughness were performed using Microsoft Excel software.

[7] = test system: Xanthomonas translucens pv. undulosa LMG892; assay: Wheat leaf infection; assay type: in vivo; conditions: single spraying of 1 mL, 10 mg/mL
Method: as §1, §2

[8] = test system: P. syringae pv. Phaseolicola; assay: Kidney bean plant infection; assay type: in vivo; conditions: sprayed, 14 days, multiple inoculations
Method: Plants were inoculated twice (day 1 and day 6) with 5×10^6 cells P. syringae pv. Phaseolicola. Left, leaves were sprayed with enzyme buffer after the fist inoculation, for right, leaves were sprayed with buffer containing the QQ lactonase (0.5 mg/mL). Pictures were taken at day 14.
Kidney bean plants were grown and infected with P. syringae pv. Phaseolicola.

B1: SsoPox W263I: improved variant of the hyperthermostable lactonase SsoPox from Sulfolobus solfataricus, exhibiting higher catalytic rates (protein, UniProt Q97VT7 1-314, looked up, variant W263I)
Aryldialkylphosphatase: MRIPLVGKDSIESKDIGFTLIHEHLRVFSEAVRQQWPHLYNEDEEFRNAVNEVKRAMQFGVKTIVDPTVMGLGRDIRFMEKVVKATGINLVAGTGIYIYIDLPFYFLNRSIDEIADLFIHDIKEGIQGTLNKAGFVKIAADEPGITKDVEKVIRAAAIANKETKVPIITHSNAHNNTGLEQQRILTEEGVDPGKILIGHLGDTDNIDYIKKIADKGSFIGLDRYGLDLFLPVDKRNETTLRLIKDGYSDKIMISHDYCCTIDIGTAKPEYKPKLAPRWSITLIFEDTIPFLKRNGVNEEVIATIFKENPKKFFS
[1]
  substrate specificity: not capable of degrading short chain AHLs
[2]
  time remaining stable: > 300 days
[3]
  maceration of potato slices: less maceration
[4]
  leaf spots on barley leaves: Absence of leaf spots
[5]
  abundance of Burkholderiales, Pseudomonadales and Rhodospirillales: significantly reduced
[6]
  reduction of the coverage of corrosion tubercles: 50%
  reduction of the number (formation) of corrosion tubercles: 50%
[7]
  leaf spots on wheat leaves: Absence of leaf spots
[8]
  protection of kidney bean plant: protected the plant from infection
